Test results from patent US8211422.

Target: GA733 antigen (37 kD protein expressed on colorectal carcinoma cells) (UniProt P16422)
Assay: cell-based or functional assay

Chain of UniProt P16422 (P16422 24-314): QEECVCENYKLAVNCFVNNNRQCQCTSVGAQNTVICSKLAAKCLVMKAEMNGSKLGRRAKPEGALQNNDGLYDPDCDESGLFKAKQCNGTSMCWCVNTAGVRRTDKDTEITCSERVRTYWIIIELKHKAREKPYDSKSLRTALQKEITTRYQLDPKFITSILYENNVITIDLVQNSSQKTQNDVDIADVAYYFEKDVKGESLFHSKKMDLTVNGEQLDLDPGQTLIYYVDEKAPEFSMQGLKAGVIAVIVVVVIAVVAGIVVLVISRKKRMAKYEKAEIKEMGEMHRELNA

In the case of “chimeric receptor GA733-γ (scFv of MAb GA733 joined to the γ chain of the Fc receptor)”, the % Specific Lysis of CY13, effector:target 3.3:1 is reported as 10.3%, the % Specific Lysis of CY13, effector:target 10:1 is reported as 22.2% and the % Specific Lysis of CY13, effector:target 30:1 is reported as 38.7%. It also gave a % Specific Lysis of CY13, effector:target 90:1 of 52.2%, a GM-CSF production by PBL (stimulator CY13) (pg/ml/5 × 10^5 PBL/24 hours) of 1280 and a GM-CSF production by PBL (stimulator GREM) (pg/ml/5 × 10^5 PBL/24 hours) of 2980.
